Test results taken from patent publication US20260265360A1, “USE OF ANTI-FAM19A5 ANTAGONISTS FOR TREATING HEARING DISORDERS” (NEURACLE SCIENCE CO., LTD., priority 2023, published 2026).

Legend:
[1] = tested on: inner hair cells of mouse cochlear explant; test: Reversal of FAM19A5-induced inhibition of synaptogenesis (CtBP2 puncta); format: cell-based; settings: 1 μM FAM19A5 protein plus anti-FAM19A5 antibody, treated 1 DIV, stained 2 DIV
Experimental: Cochlear explant were cultured in medium consisting of plating media, which consist of Neurobasal media (Invitrogen), 1% N2 supplement, and 10 μg/mL Ampicillin with culture media with additional 1% FBS.
Postnatal day 4-5 (P4-5) C57BL/6 mice were sacrificed for inner ear dissection. Mouse head was bisected, and brain tissue was removed. Cochlea was carefully separated the from the extraneous bones in ice-cold HBSS (5 mM HEPES/1.3 mM CaCl2), 0.9 mM MgCl2, pH 7.4) or External solution (1.2 mM CaCl2), 1 mM MgCl2, 5 mM HEPES in HBSS). Then the stria vascularis and spiral bone plate was removed, and cochlea was cut into two to three sections. […]
Mouse cochlear explant cultures were treated with FAM19A5, FAM19A5 combined with a FAM19A5 antagonist (e.g., described herein, e.g., 1-30 antibody), or a FAM19A5 antagonist (e.g., described herein, e.g., 1-30 antibody) alone at 1 DIV to determine the level of synaptogenesis at 2 DIV by immunostaining CtBP2, a ribbon synapse marker. To quantify the number of CtBP2 puncta of individual inner hair cells, z-stack confocal images were exported in “multi-page” and the number of CtBP2 puncta from each individual inner hair cells were measured using ROI manger and multi-point tool from Fiji (Image J). Number of CtBP2 puncta from five individual inner hair cells were counted per image and 3 z-stack images were measured from each treatment group. […]

[2] = tested on: mouse primary spiral ganglion neurons; test: Reversal of FAM19A5-induced inhibition of neurite outgrowth; format: cell-based; settings: 10 μM FAM19A5 protein co-treated with 100 nM antibody, 3 DIV
Experimental: Sprial ganglion neuron were cultured in culture media consisting of high-glucose (4.5 mg/mL) DMEM, 0.1 mg/ml penicillin, 0.1 mg/mL streptomycin, N2 supplement, and 10 µg/mL insulin and was designated here as “5K” because in this media, [K+]=5.4 mM. A depolarizing media, designated as “30K,” in which Na was replaced with equimolar K to raise [K] to 30 mM while maintaining osmolarity was also used.
Dissociated spiral ganglion cell cultures were prepared from postnatal day 4-5 (P4-5) cochleae and maintained using a procedure modified from the methods described by Bok et al., J Neurosci 23 (3): 777-87 (2003), which is incorporated herein by reference in its entirety. […]
Neurite outgrowth was quantified by measuring the total length of neurites per neuron. Neurons were stained with NF200 at either 2 or 3 DIV, and neurite lengths were measured using the Fiji (Image J). Individual neurons were manually selected, and neurite lengths were determined using the Simple Neurite Tracer plugin.
Briefly, mouse primary spiral ganglion neurons (cultured and processed as described in Example 11) were treated with a FAM19A5 protein (10 μM) alone or in combination with an anti-FAM19A5 antibody (1-30) (100 nM) at 0 DIV (day in vitro). […] Then, at 3 DIV, the neurons were stained for neurofilament protein (NF200) expression and the average neurite length quantified.

C57BL/6 mice = test: Effect of anti-FAM19A5 antibody administration itself on hearing ability (ABR threshold); format: in vivo, mouse; settings: 30 mg/kg i.v. once weekly; 2 weeks post antibody administration; no noise exposure
Experimental: FIGS. 5A, 5B, and 5C show the effect of FAM19A5 antagonist administration on hearing ability in mice. The effect on hearing was assessed by measuring auditory brainstem response (ABR) generated after FAM19A5 antagonist administration. FIG. 5A provides a schematic of the experimental design. As shown, anti-FAM19A5 antibody (1-30) or control human IgG antibody was administered to the mice intravenously once a week (30 mg/kg per dose). ABR (i.e., hearing test) was measured prior to the initial administration of the antibodies and then at day 1, week 2, and 8 week post antibody administration. FIG. 5B provides comparison of ABR threshold in the mice prior to the initial administration of the anti-FAM19A5 antibody (box) or the control IgG antibody (circle). […] In both FIGS. 5B and 5C, the ABR threshold was measured at a frequency ranging from 0 to 64 kHz.
To assess whether the administration of a FAM19A5 antagonist itself has any effect on hearing, C57BL/6 mice (8 weeks old) were intravenously administered with either an anti-FAM19A5 antibody (1-30 antibody) or a control human IgG antibody. […] To assess hearing, auditory brainstem response (ABR) threshold was measured prior to the initial antibody administration and then at day 1, 2 weeks, and 8 weeks post antibody administration.

B1: 1-30: anti-FAM19A5 antibody, de-immunized variant of 3-2; VH SEQ ID NO: 235, VL SEQ ID NO: 240 (antibody, V domains shown)
VH: AVTLDESGGGLQTPGGALRLSCKASGFDFESFNMFWVRQAPGKGLEYVSQISSSEEDENYAPAVKGRATISRDNGQSTLYLQMNSLRAEDTGTYYCAKSSYDCPYGHCSSGVDSAGEIDAWGHGTEVIVSS
VL: ALTQPSSVSANPGETVKITCSGGGSEEEQYYYGWYQQKPGSAPVTLIYQDEERPSDIPSRFSGSTSGSTATLTITGVQAGDEADYYCGSWDSEDEDHFGAGTTLTVL
modifications: Low-PI VH, 1-30 VH, 1-17 VH, 1-32 VH, 4-11 VH, 6-10 VH; 1-30 VL
- number of CtBP2 puncta in inner hair cells [1]: increased (as compared to the FAM19A5 protein alone group) and comparable to that of the control group
- neurite growth in FAM19A5-treated neurons [2]: less reduction in neurite growth and comparable to the neurons from the control group
- ABR threshold values vs control IgG antibody (C57BL/6 mice): remained comparable
